The text below walks through data of patent US20110004951A1, “METHODS AND COMPOSITIONS FOR IDENTIFYING COMPOUNDS THAT INHIBIT HIV-1 SUBUNIT-SPECIFIC REVERSE TRANSCRIPTASE” (UAB Research Foundation, The, priority 2004, published 2011).

By IC50 is commonly meant the midpoint of a concentration-inhibition curve.

Assay [1] has as its target p66 subunit of HIV-1 reverse transcriptase, expressed in trans with Met-Gly on the N-terminus (HIV-1 (pSG3)). As to the kind of experiment: cell-based or functional assay.
Assay [2] has as its target p66^W410A subunit of HIV-1 reverse transcriptase, expressed in trans (HIV-1 (pSG3)). The experiment in a line: cell-based or functional assay.
In assay [3] the target is p66^W401A subunit of HIV-1 reverse transcriptase, expressed in trans (HIV-1 (pSG3)). The experiment in a line: cell-based or functional assay.
Assay [4] concerns the target p66^L234A subunit of HIV-1 reverse transcriptase, expressed in trans (HIV-1 (pSG3)). As to the kind of experiment: cell-based or functional assay.
Assay [5] has as its target T1, p51W401A/p66W401A trans-heterodimeric RT (Human immunodeficiency virus type 1 group M subtype B, UniProt P04585, W988A).
T1 construct: expressed in transfected cells; host or cells: 293T
The experiment in a line: Effects of NNRTIs on trans-RT subunit interaction: immunoblot of virion-associated p66 from transfected 293T cells. The format is cell-based, HIV-1. Conditions: p51 W401A/p66 W401A RT mutants, FIG. 22. Background: A western blot detects proteins with antibodies after separation by electrophoresis.
Protocol: The dimerization enhancing NNRTI EFV was added to the culture medium 12 h after DNA transfection at concentrations ranging from 0.01-1.0 μM. The transfection-derived virions were collected 48 hours later and analyzed by immunoblot using mAbs to (A) RNase H and (B) CA.
At 24 h post-transfection, the specified concentrations of drug were added. […] The clarified supernatants were processed for and analyzed by immunoblot as described below.
Transfection-derived virions were concentrated by ultracentrifugation through 20% sucrose cushion (125,000×g, 2 hr, 4° C.) using a SW41 rotor (Beckman Inc.). […] The blocked blots were exposed to an appropriate primary antibody for 1 h in blocking buffer with constant mixing. After extension washing, bound antibodies were detected by chemiluminescence using horseradish peroxidase-conjugated species-specific secondary antibodies (Southern Biotechnology Associates, Inc.).

Assay [6] deals with p66^W410L subunit of HIV-1 reverse transcriptase, expressed in trans (HIV-1 (pSG3)). As to the kind of experiment: cell-based or functional assay.
Assay [7] concerns M7 virions complemented with wildtype trans-RT (Vpr-p51/p66). The experiment in a line: Inhibition of trans-RT using NRTI and NNRTI, TZM-b1 reporter cell infectivity assay. The format is cell-based, HIV-1. Particulars: for antiviral effect, inhibition of infectivity: TZM-b1 indicator cells, 3TC 0.04, 0.2 and 1.0 μM, nevirapine 1.0, 5.0 and 5.0 μM as printed. How it is done:
Virions derived by cotransfection with M7, vpr-p51/p66 and vpr-IN were used to infect the TZM-b1 reporter cell line. The two RT drugs, 3TC and nevirapine, were analyzed at concentrations of 0.04-1.0 μM for 3TC and 1.0-25.0 μM for nevirapine as described in Example 1. The results are expressed as a percentage of untreated virus.
The trans-heterodimer assay is of clinical relevance for analyzing HIV-1 RT inhibitors, drug resistance and the effects of drug resistance mutations on viral fitness. To examine the response of the trans-heterodimeric RT to anti-RT drugs, transfection-derived M7 virions complemented with wildtype trans-RT (Vpr-p51/p66) were used to infect the TZM-b1 indicator cells in the absence or presence of either 3TC (0.04, 0.2 and 1.0 μM) or nevirapine ([…]).
Virions were derived by cotransfection of 293T cells with M7, vpr-p51/p66 and vpr-IN. The TZM-b1 cells were seeded overnight in 24-well plates at a concentration of 40,000 cells in 250 μl of medium per well. The culture medium was removed and replaced with 250 μl of DMEM containing 1% FBS and 2× drug concentrations (5-fold dilutions). 250 μl of virus suspension normalized for equal IU, as determined by TZM-b1 assay (diluted in DMEM containing 1% FBS and 80 μg/ml DEAE-dextran), was then added to the cells. The two RT drugs used in this analysis, 3TC and nevirapine, were at final concentrations ranging from 0.04-1.0 μM and 1.0-25.0 μM, respectively. The cells were fixed 48 h post-infection, stained with X-gal reagent, and the blue-stained cells were counted using a light microscope as described above. The 50% inhibition concentration (IC50) was measured with a 95% confidence interval.

Assay [8] relates to HIV-1 NL4-3 with L234A, W398A, W401A and YMAA mutations. The experiment in a line: Infectivity of HIV-1 NL4-3 proviral clones with RT mutations, with efavirenz (FIG. 23). Particulars: NL4-3 proviral clones with RT mutation, transfected into 293T cells.
Protocol: Additional analysis of the W401A and W410A mutations was conducted in the context of the complete HIV-1 NL4-3 proviral clone. […] The non-infectious RT-minus M7 clone was included as negative control (lane 2). […] Probing a replica blot with mAb to CA confirmed that approximately the same amount of each virus was analyzed (FIG. 13C).

As for Vpr-p51^W398A fusion protein, the virus infectivity, TZM-b1 reporter cells, percentage of wildtype trans-RT heterodimer in assay [1] is less than 50%.

As to Vpr-p51^Y405A fusion protein, the virus infectivity, TZM-b1 reporter cells, percentage of wildtype trans-RT heterodimer in assay [1] was found to be 50%. The compound also returned a virus infectivity, TZM-b1 reporter cells, percentage of wildtype trans heterodimer in assay [2] of 25%.

With “Vpr-p51 fusion protein, wildtype, modified construct with 135 bps of PR sequence (45 amino acids) between Vpr and RT”, in assay [3], the virus infectivity, JLTRG-R5 reporter T cell line (EGFP), percentage of wildtype trans-RT worked out at 50%; the virus infectivity, TZM-b1 reporter cells, percentage of wildtype trans heterodimer worked out at 40%; the virus infectivity, TZM-b1 reporter cells, percentage of wildtype trans-RT came out at 40%. In addition, the virus infectivity, TZM-b1 reporter cells, percentage of wildtype trans heterodimer in assay [4] was less than 5%.

As for “2′,5′-bis-O-(tert-butyldimethylsilyl)-beta-D-ribofuranosyl 3′-spiro-5″-(4″-amino-1″,2″-oxathiole 2″,2″-dioxide) [TSAO]”, in assay [5], the “RT heterodimerization, destabilization” value is “can destabilize HIV-1 RT heterodimerization”.

As for Vpr-p51^W414A fusion protein, the virus infectivity, TZM-b1 reporter cells, percentage of wildtype trans-RT heterodimer in assay [1] is less than 50%.

On to Vpr-p51^W401A fusion protein, for which the virus infectivity, TZM-b1 reporter cells, percentage of wildtype trans heterodimer in assay [6] and in assay [2] was 40% throughout.

For `Nc1ccn([C@@H]2CS[C@H](CO)O2)c(=O)n1` [3TC], the “antiviral effect, inhibition of infectivity” value in assay [7] is given as “potent, dosage-dependent antiviral effect”.

Vpr-p51^W401L fusion protein: the virus infectivity, TZM-b1 reporter cells, percentage of wildtype trans heterodimer in assay [2] was found to be 40%.

Take Vpr-p51^N363A fusion protein: in assay [2], the virus infectivity, TZM-b1 reporter cells, percentage of wildtype trans heterodimer came out at 35%.

Compound Vpr-p51^W406A fusion protein returned a virus infectivity, TZM-b1 reporter cells, percentage of wildtype trans-RT heterodimer in assay [1] of less than 50%.

Take Vpr-p51^W402A fusion protein: the virus infectivity, TZM-b1 reporter cells, percentage of wildtype trans-RT heterodimer in assay [1] was less than 50%.

In the case of `Cc1ccnc2c1NC(=O)c1cccnc1N2C1CC1` [nevirapine], the IC50 in assay [7] (Human immunodeficiency virus 1, TZM-b1, 48 h, read-out: IC50, inhibition of infectivity) turned out to be 11 nM. Also, the “antiviral effect, inhibition of infectivity” value in assay [7] is “potent, dosage-dependent antiviral effect”.

Take `O=C1Nc2ccc(Cl)cc2[C@@](C#CC2CC2)(C(F)(F)F)O1` [efavirenz]: the “rescue of infectivity of mutant virus” value in assay [8] is on record as “not rescued”.

In turn, Vpr-p51^N363A;Y405A fusion protein showed a virus infectivity, TZM-b1 reporter cells, percentage of wildtype trans heterodimer in assay [1] of 35%.
